The labels stand for the following.
B1: Focal adhesion kinase 1 (Gallus gallus (Chicken)), Q00944 (parent)
chain: MAAAYLDPNLNHTPSSSAKTHLGTGMERSPGAMERVLKVFHYFENSSEPTTWASIIRHGDATDVRGIIQKIVDCHKVKNVACYGLRLSHLQSEEVHWLHLDMGVSNVREKFELAHPPEEWKYELRIRYLPKGFLNQFTEDKPTLNFFYQQVKNDYMLEIADQVDQEIALKLGCLEIRRSYGEMRGNALEKKSNYEVLEKDVGLRRFFPKSLLDSVKAKTLRKLIQQTFRQFANLNREESILKFFEILSPVYRFDKECFKCALGSSWIISVELAIGPEEGISYLTDKGANPTHLADFNQVQTIQYSNSEDKDRKGMLQLKIAGAPEPLTVTAPSLTIAENMADLIDGYCRLVNGATQSFIIRPQKEGERALPSIPKLANNEKQGVRSHTVSVSETDDYAEIIDEEDTYTMPSTRDYEIQRERIELGRCIGEGQFGDVHQGIYMSPENPAMAVAIKTCKNCTSDSVREKFLQEALTMRQFDHPHIVKLIGVITENPVWIIMELCTLGELRSFLQVRKFSLDLASLILYAYQLSTALAYLESKRFVHRDIAARNVLVSATDCVKLGDFGLSRYMEDSTYYKASKGKLPIKWMAPESINFRRFTSASDVWMFGVCMWEILMHGVKPFQGVKNNDVIGRIENGERLPMPPNCPPTLYSLMTKCWAYDPSRRPRFTELKAQLSTILEEEKLQQEERMRMESRRQVTVSWDSGGSDEAPPKPSRPGYPSPRSSEGFYPSPQHMVQPNHYQVSGYSGSHGIPAMAGSIYPGQASLLDQTDSWNHRPQEVSAWQPNMEDSGTLDVRGMGQVLPTHLMEERLIRQQQEMEEDQRWLEKEERFLVMKPDVRLSRGSIEREDGGLQGPAGNQHIYQPVGKPDHAAPPKKPPRPGAPHLGSLASLNSPVDSYNEGVKIKPQEISPPPTANLDRSNDKVYENVTGLVKAVIEMSSKIQPAPPEEYVPMVKEVGLALRTLLATVDESLPVLPASTHREIEMAQKLLNSDLAELINKMKLAQQYVMTSLQQEYKKQMLTAAHALAVDAKNLLDVIDQARLKMISQSRPH

The variants in this test derive from B1. The note with it: with paxi_chick PXN.
For the variant I937A, the “effect of a mutation on the interaction” value was “decreasing interaction”.

As to E949A;K956A;R963A, the “effect of a mutation on the interaction” value is “decreasing interaction”.

These data come from IntAct's records for PubMed 18171471.
